Measured values reported in US20190030123A1.

Key:
[1] = molecular target: HIS-tagged neonatal Fc receptor (FcRn, No. CT009-H08H from Sino Biological Inc) (UniProt P55899); assay: BLI (Octet RED 96), His-FcRn on Ni-NTA biosensor, aflibercept as analyte, pH 6.0; formulation (a), stored 3 months at 40 C/75% relative humidity
[2] = molecular target: HIS-tagged neonatal Fc receptor (FcRn, No. CT009-H08H from Sino Biological Inc) (UniProt P55899); assay: BLI (Octet RED 96), His-FcRn on Ni-NTA biosensor, aflibercept as analyte, pH 6.0; sample (d) Eylea, stored 3 months at 40 C/75% relative humidity
[3] = molecular target: HIS-tagged neonatal Fc receptor (FcRn, No. CT009-H08H from Sino Biological Inc) (UniProt P55899); assay: BLI (Octet RED 96), His-FcRn on Ni-NTA biosensor, aflibercept as analyte, pH 6.0; formulation (b), stored 3 months at 5 C
[4] = molecular target: HIS-tagged neonatal Fc receptor (FcRn, No. CT009-H08H from Sino Biological Inc) (UniProt P55899); assay: BLI (Octet RED 96), His-FcRn on Ni-NTA biosensor, aflibercept as analyte, pH 6.0; formulation (c), starting material T0
[5] = molecular target: HIS-tagged neonatal Fc receptor (FcRn, No. CT009-H08H from Sino Biological Inc) (UniProt P55899); assay: BLI (Octet RED 96), His-FcRn on Ni-NTA biosensor, aflibercept as analyte, pH 6.0; formulation (c), stored 3 months at 40 C/75% relative humidity
[6] = molecular target: HIS-tagged neonatal Fc receptor (FcRn, No. CT009-H08H from Sino Biological Inc) (UniProt P55899); assay: BLI (Octet RED 96), His-FcRn on Ni-NTA biosensor, aflibercept as analyte, pH 6.0; formulation (b), starting material T0
[7] = molecular target: HIS-tagged neonatal Fc receptor (FcRn, No. CT009-H08H from Sino Biological Inc) (UniProt P55899); assay: BLI (Octet RED 96), His-FcRn on Ni-NTA biosensor, aflibercept as analyte, pH 6.0; formulation (b), stored 3 months at 40 C/75% relative humidity
[8] = molecular target: HIS-tagged neonatal Fc receptor (FcRn, No. CT009-H08H from Sino Biological Inc) (UniProt P55899); assay: BLI (Octet RED 96), His-FcRn on Ni-NTA biosensor, aflibercept as analyte, pH 6.0; formulation (a), starting material T0
[9] = molecular target: HIS-tagged neonatal Fc receptor (FcRn, No. CT009-H08H from Sino Biological Inc) (UniProt P55899); assay: BLI (Octet RED 96), His-FcRn on Ni-NTA biosensor, aflibercept as analyte, pH 6.0; formulation (a), stored 3 months at 5 C
[10] = molecular target: HIS-tagged neonatal Fc receptor (FcRn, No. CT009-H08H from Sino Biological Inc) (UniProt P55899); assay: BLI (Octet RED 96), His-FcRn on Ni-NTA biosensor, aflibercept as analyte, pH 6.0; formulation (c), stored 3 months at 5 C
[11] = molecular target: HIS-tagged neonatal Fc receptor (FcRn, No. CT009-H08H from Sino Biological Inc) (UniProt P55899); assay: BLI (Octet RED 96), His-FcRn on Ni-NTA biosensor, aflibercept as analyte, pH 6.0; sample (d) Eylea, starting material T0
[12] = molecular target: HIS-tagged neonatal Fc receptor (FcRn, No. CT009-H08H from Sino Biological Inc) (UniProt P55899); assay: BLI (Octet RED 96), His-FcRn on Ni-NTA biosensor, aflibercept as analyte, pH 6.0; sample (d) Eylea, stored 3 months at 5 C

Kd [1]: 90.5 pM
koff [1]: 4.11e-05 s⁻¹
kon [1]: 454000 M⁻¹ s⁻¹
Kd [2]: 60.9 pM
koff [2]: 3e-05 s⁻¹
kon [2]: 493000 M⁻¹ s⁻¹
Kd [3]: 92.3 pM
koff [3]: 5.71e-05 s⁻¹
kon [3]: 619000 M⁻¹ s⁻¹
Kd [4]: 107 pM
koff [4]: 6.44e-05 s⁻¹
kon [4]: 605000 M⁻¹ s⁻¹
Kd [5]: 59.1 pM
koff [5]: 2.71e-05 s⁻¹
kon [5]: 459000 M⁻¹ s⁻¹
koff [6]: 6.47e-05 s⁻¹
kon [6]: 613000 M⁻¹ s⁻¹
Kd [7]: 59.1 pM
koff [7]: 2.86e-05 s⁻¹
kon [7]: 483000 M⁻¹ s⁻¹
Kd [8]: 118 pM
koff [8]: 6.56e-05 s⁻¹
kon [8]: 556000 M⁻¹ s⁻¹
Kd [9]: 98 pM
koff [9]: 5.84e-05 s⁻¹
kon [9]: 596000 M⁻¹ s⁻¹
Kd [10]: 103 pM
koff [10]: 6.28e-05 s⁻¹
kon [10]: 610000 M⁻¹ s⁻¹
Kd [11]: 99.3 pM
koff [11]: 5.56e-05 s⁻¹
kon [11]: 560000 M⁻¹ s⁻¹
Kd [12]: 96.8 pM
koff [12]: 6.11e-05 s⁻¹
kon [12]: 631000 M⁻¹ s⁻¹
Substance: aflibercept (from UniProt P17948 129-230; P35968 225-327) (Fc fusion)
